Assay results published in patent US20070167370A1 (UUTECH, published 2007).

Biological target: T1, human GIP receptor, stably transfected in Chinese hamster lung (CHL) fibroblast cells (human, UniProt P48546 22-466)
T1 sequence (looked up): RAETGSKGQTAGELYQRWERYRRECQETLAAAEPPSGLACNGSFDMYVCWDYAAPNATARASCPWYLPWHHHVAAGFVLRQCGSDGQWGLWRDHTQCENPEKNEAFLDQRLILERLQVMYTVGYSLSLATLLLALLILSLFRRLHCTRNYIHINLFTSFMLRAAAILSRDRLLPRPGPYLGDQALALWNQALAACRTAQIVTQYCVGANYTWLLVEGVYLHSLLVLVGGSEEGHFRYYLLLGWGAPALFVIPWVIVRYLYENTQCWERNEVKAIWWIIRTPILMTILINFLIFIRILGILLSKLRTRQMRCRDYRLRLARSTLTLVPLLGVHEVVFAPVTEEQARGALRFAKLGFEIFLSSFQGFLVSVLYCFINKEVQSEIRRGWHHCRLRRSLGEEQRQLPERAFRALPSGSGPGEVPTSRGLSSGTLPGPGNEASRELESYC
Experiment: cell-based or functional assay

B1: (Pro^3)GIP (peptide)
peptide: YAPGTFISDYSIAMDKIHQQDFVNWLLAQKGKKNDWKHNITQ
  IC50 of inhibition of GIP-induced cAMP formation (GIP receptor transfected CHL fibroblasts, native GIP 10^-7 M): 2.6 µM
